Experimental data: patent publication US20260055155A1, “INCRETIN ANALOG AND USE THEREOF” (SHANGHAI MINWEI BIOTECHNOLOGY CO., LTD, priority 2023, published 2026)
Entries after “also recorded” stand apart in the source; their conditions may differ. Numbered stars: 1 amine (or outer) side, 2 acyl side, 3 side chain; on linkers, the order of the positions; unused ones are H or OH. Square brackets hold non-standard residues; d marks the D form. Side chains are listed from the residue outwards. Peptide text beside a SMILES is read from it. * marks the point of attachment. C20 diacid = O=C(O)CCCCCCCCCCCCCCCCCCC(=O)*; γGlu = O=C(O)[C@H](CCC(=O)[*:2])N[*:1]; AEEA = NCCOCCOCC(=O)O; Aib = CC(C)(N)C(=O)O

Assays:
[1] = stability of polypeptide in serum (GIP activity read-out with CHOK1-GIPR cells); assay type: in vitro ADME, cynomolgus monkey; details: for Activity ratio (%, Relative to the sample at 0 h): 100 μg/ml in cynomolgus monkey serum, GIP activity
Experimental: Polypeptide 1 (SEQ ID NO. 1), polypeptide 3 (SEQ ID NO. 3) and control LY3437943 were diluted to 100 μg/ml with cynomolgus monkey serum, divided into 3 pieces with 200 μl/piece, respectively. One sample was placed in a −80° C. refrigerator as a zero reference, and the other two samples were placed in a 37° C. incubator and moved into a −80° C. refrigerator after 24 hours and 72 hours respectively. […] The activity changes of different samples after being placed for different periods of time were compared.

GIP receptor (human) = biological target: T1, GIP receptor (human) (UniProt P48546); assay: cell-based or functional assay
T1 sequence (looked up): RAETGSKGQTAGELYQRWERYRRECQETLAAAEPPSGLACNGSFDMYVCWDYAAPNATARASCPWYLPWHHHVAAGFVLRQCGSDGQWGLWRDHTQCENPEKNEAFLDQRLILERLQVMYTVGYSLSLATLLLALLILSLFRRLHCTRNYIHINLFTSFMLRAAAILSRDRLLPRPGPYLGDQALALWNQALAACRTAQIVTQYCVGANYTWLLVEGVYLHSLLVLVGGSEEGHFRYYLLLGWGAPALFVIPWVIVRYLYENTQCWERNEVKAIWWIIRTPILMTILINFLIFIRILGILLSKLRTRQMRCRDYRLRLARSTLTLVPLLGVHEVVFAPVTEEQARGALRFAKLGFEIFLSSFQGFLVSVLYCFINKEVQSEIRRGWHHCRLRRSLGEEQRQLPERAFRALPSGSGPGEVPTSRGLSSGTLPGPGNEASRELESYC

[2] = biological target: human GLP-1 receptor (human) (UniProt P43220); assay: cell-based or functional assay
GCG receptor = GCG receptor (UniProt P47871); assay: cell-based or functional assay

Molecule: CC[C@H](C)[C@H](NC(=O)[C@H](CCCCNC(=O)COCCOCCNC(=O)CC[C@H](NC(=O)CCCCCCCCCCCCCCCCCCC(=O)O)C(=O)O)NC(=O)[C@H](CC(=O)O)NC(=O)[C@H](CC(C)C)NC(=O)[C@H](CC(C)C)NC(=O)[C@@H](NC(=O)[C@H](CO)NC(=O)[C@H](Cc1ccc(O)cc1)NC(=O)[C@H](CC(=O)O)NC(=O)[C@H](CO)NC(=O)[C@@H](NC(=O)[C@H](Cc1ccccc1)NC(=O)[C@@H](NC(=O)CNC(=O)[C@H](CCC(N)=O)NC(=O)C(C)(C)NC(=O)[C@@H](N)Cc1c[nH]cn1)[C@@H](C)O)[C@@H](C)O)[C@@H](C)CC)C(=O)N[C@@H](C)C(=O)N[C@@H](C)C(=O)N[C@@H](CCC(N)=O)C(=O)N[C@@H](C)C(=O)N[C@@H](Cc1ccccc1)C(=O)N[C@H](C(=O)N[C@@H](CCC(=O)O)C(=O)N[C@@H](Cc1c[nH]c2ccccc12)C(=O)N[C@@H](CC(C)C)C(=O)N[C@H](C(=O)N[C@@H](C)C(=O)NCC(=O)NCC(=O)N1CCC[C@H]1C(=O)N[C@@H](CO)C(=O)N[C@@H](CO)C(=O)NCC(=O)N[C@@H](C)C(=O)N1CCC[C@H]1C(=O)N1CCC[C@H]1C(=O)N1CCC[C@H]1C(=O)N[C@@H](CO)C(N)=O)[C@@H](C)CC)[C@@H](C)CC [Polypeptide 1] (H-H[Aib]QGTFTSDYSILLDK([AEEA-γGlu-C20 diacid])IAAQAFIEWLIAGGPSSGAPPPS-NH2; N-terminus and C-terminus assumed)
- stability in serum (in words) ([1]; cynomolgus monkey serum, 37° C.): higher than that of polypeptide 3; also recorded: significantly improve polypeptide stability
- Activity ratio (%, Relative to the sample at 0 h) ([1]; incubation time at 37° C. 0 h (zero reference)): 100%
- Activity ratio (%, Relative to the sample at 0 h) ([1]; incubation time at 37° C. 72 h): 67.13%

Molecule: GIP (from UniProt P09681 52-93) (ligand)
- EC50 (nmol/L), reporter gene in CHO-K1 cells (GIP receptor (human)): 0.059 nmol/L

Molecule: GLP-1 (from UniProt P01275 92-128) (ligand)
- EC50 (nmol/L), CRE-luciferase reporter in CHO-K1 cells [2]: 1.95 nmol/L

Molecule: LY3437943 (peptide)
- Results of activity in human serum albumin system (GCGR) (GCG receptor): 26
- Results of activity in human serum albumin system (GIPR) (GIP receptor (human)): 3.29
- Results of activity in human serum albumin system (GLP-1R) [2]: 540
